Laboratory results reported in the nanobody polyreactivity screen of Harvey et al. (2022).

Assay: yeast display, Sf9 membrane polyspecificity reagent, FACS + sequencing; frameworks hold sequencing errors
Outline: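 Nanobodies from a synthetic yeast display library (Saccharomyces cerevisiae BJ5465), induced 36–48 hours with galactose, were stained 1 hour at 4 °C with 10% biotinylated, detergent-solubilized Sf9 membrane reagent, enriched on streptavidin microbeads, then FACS-sorted. Anti-HA (expression) and streptavidin (reagent binding) fluorescence set low and high (top ~1%) gates. Polyreactivity labels come from the gate of origin. Genes were colony-PCR amplified, MiSeq 2 × 250 sequenced and filtered by CDR length.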

Sequence | polyreactivity (PSR sort gate)
QVQLVESGGGLVQAGGSLRLSCAASGSTFYQYVMGWYRQAPGKERELVADITNGGSTYYADSVKGRFTISRDNAKNTVYLQMNSLKPEDTAVYYCAADGGYYWYTYWYGGLYYWGQGTQVTVSS | high polyreactivity
QVQLVESGGGLVQAGGSLRLSCAASGNIFHDNAMGWYREAPGKERELVAAISDSGGSTYYADSVKGRFTISRDNAKNTVYFQMNSLQPEDTAVYYCDSGRTYYAPYQWWYDYWGQGTQVTVSS | high polyreactivity
QVQLVESGGGLFQAGGSLRLSCAASGRIFKYAMGWYRQAPGKERELVAAISSSGGRTYYADSVKGRFTISRDNAKNTVYLQMNSLKPEDTAVYYCAATSYNTQSAFYYWGQGTQVTVSS | high polyreactivity
QVQRVESGGGLVQAGGSLRLSCAASGRTFYPYLMGWYRQSPGKERELVARIRWSGSSTYYADSVKGRFTISRDNAKNTVYFQMNSLKPEDTAVYYCNARPSWYVFGSSVHSGMGYWGQGTQVTVSS | high polyreactivity
QVQLVESGGGLVQAGGSLRLSCAASGSTFPAYTMGWYRQAPGKERELVAAINVSSGGSTYYADSVKGRFTISRDNAKNTVYLQRNSLKPEDTAVYYCATHGYVAHPYYYPYYYWGQGTQVTVSS | low polyreactivity
QVQLVESGGGLVQAGGSLRLSCPASGIIFNLYAMGWYRQAPGKERELVAAISWSGGSTDYADSVKGRFTISRDNAKNTVYLQMNSLKPEDTAVYYCATSFLYPYFDEDDYWGQGTQVTVSS | high polyreactivity
QVQLVESGGGLVQAGGSLRLSCAASGSISVANAMGWYRQAPGKERELVAAITDSGDDTYYADSVKGRFTISRDNAKNTVYLQMNSLKPEDTAVYYCAVEAWSVPPYDYWGQGTIVTVSS | low polyreactivity
QVQLVESGGGLVQAGGSLRLICAASGYTFTGYAMGWYRQAPGKEREFVAGITWRTGRTYYADSVNGRFTISRDNAKNTVYLQMNSLKPEDTAVYYCAAVPWKRYDYYTPFARGYWGQGTQVTVSS | low polyreactivity
QVQLVESGGGLVQAGGSLRLSCAASGRTFVRNAMGWYRQAPGKERELVAAISSSGGSTYYADSVKGRFTISRDNAKNTVYLQMNSLKPEDTAVYYCAARSAFYYTYRSHYGWGMDYWGQGTQVTVSS | high polyreactivity
QVHLVESGGGLVQAGGSLRLSCAASGSTFDAYDMGWYRQAPGKERELVAAISSSGGSTYYADSVKGRFTISRDNAKNTVYLQMNSLKPEDTAVYYCAADWSVWDYDYWGQGTQVTVSS | low polyreactivity
QVQLVESGGGLVQAGGSLRLSCAASGITFTRYAMGWYRQAPGKEMEFVAAIRRSGGNTYYADSVKGRFTISRDNAKNTVYLQMNSLKPEDTAVYYCAASFRKTSPTRLVDYWGQGTQVTVSS | low polyreactivity
QVQLVESGGGLVQAGGSLRLSCAASGSIFDFYAMGWYRQAPGKERELVAAINSGGRTYADSVKGRFTISRDNAKNTVYLQMNSLKPEDTAVYYCAAEYQYLSVEVTDIWYLTKYDYWGQGTQVTVSS | low polyreactivity
QVQLVESGGGLVQAGGSLRLSCAASGSTFEPNGMGWYRQAPGKETELVAVITSGRTNYADSVKGSFTISRDNAKNTVYLQMNSLKPEDTAVYYCNAEGNGIYDYWGQGTQVTVSS | low polyreactivity
QVQLVESGGGLVQAGGSLRLSCAASGFIFFYYAMGWYRQAPGKERELVAAITRGGSTNYADSVKGRFTISRDNAKNTVYLQMNRLKPEDTAVYYCNKQYGRRHYWGDDYYWGQGTQVTVSS | low polyreactivity
QVQLVESGGGLVQAVGSLRLSCAASGSTFYPYAMGWYRQSPGKERELVAAISISGGITYYADSVKVRFTISRDNAKNTVYLQMNSLKPEDTAVYYCAAEYLAVSGYWYDYWGQGTQVTVSS | high polyreactivity
QVQLVESGGGLVQAGGSLRLSCAASGITFPYYAMGWYRQAPGKERELVAAISLSGGTTYYADSVKGRFTISRDNAKNTVYLQMNSLKPDDTAVYYCAARSSKFVTSNRYDYWGQGTQVTVSS | high polyreactivity
QVQLVESGGGLVQAGGSLRLICAASGFTFRGYAMGWYRQAPGKERELVAAIRRGVITNYADSVNGRFTISRDNAKNTVYLQMNSLKPEDTAVYYCAAGNITPYRYYHGYYQSIYDYWGQGTIVTVSS | low polyreactivity
QVQLVESVRGSVQAGGSLRLSCAASGSTFYENAMGWYRPAPGKVRELVAAITWSGGRTYYADSVKGRFTISRDNAKNTVYLQMYSLKAEDTAVYYCNARARSRKFYYWGQGTQVTVSS | high polyreactivity
QVQLVESGGGLVQAGGSLRLSCAASGLTFYYYAMGWYRQAPGKERELVATISGSGGNTYYADSVKGRFTISRDNAKNTVYLQMNSLKPEDTAVYYCNARYRWWLYYSRDRVYCWGQGTQVTVSS | high polyreactivity
QVQLVESGGGLVQAGGSLRLSCAASGSIFRRNAMGWYRQAPGKERELVATITSDGSTDYADSVKGRFTISRDNAKNTVYLQMNSLKPEDTAVYYCAADRGVYDPGDYWGQGTQVTVSS | low polyreactivity
QVQLVESGGGLVQAGGSLRLSCAASGSTFYGNAMGRYRQAPGKEWELVAAISWSGGSTYYADSVKGRFTISRDNAKNTVYLQMNSLKPEDTAVYYCNADGSDRVWYDGYDYWGQGTQVTVSS | low polyreactivity
QVQLVESGGGLVQAGGSLRLSCAASGSTFHPYAMGRYRQAPGKERELVAAITWRVGSTYYADSVKGRFTISRDNAKNSVYLQMNSLKPEDTAVYYCAVSYLSTLGRSRYDYWGQGTQVTVSS | low polyreactivity

Sequence | polyreactivity (PSR sort gate)
QVLLVESGGGLVQAGGSIRLSCAASGFIFWSNSLGWYRPAPGQEMELVAAISWSGGSTYYADSVKGRFTISRDNAKNNVYLEMNSVKPEDTAVYYCAARQTYGYRYTKYGYWGQGTQVTVSS | high polyreactivity
QVQLVESGGGLVQAGGSLRLSCAASGRTFTPYAMGWYRPAPGKERELVATISSGTSTNYADSVKGRVTISRDNAKNTVYLQMNSLKPEDTAVYYCSPSRDTVGRGPIQRDYWGQGTQVTVSS | low polyreactivity
QVQLVESGGGLVQAGGSLRLSCAASGSTFGYYAMGWYRQAPGKERELVAAIRWCGGSTYADSVKGRFTISRDNAKNTVYLQMNSLKPEDTEVYYCAQYRWYGSVLGGYWGQGTQVTVSS | high polyreactivity
QVQLVESGGGLVQAGGSLRISCAASGSIVYPYAMGWYRQAPGKERELVAAISYSGGSTYYADSVKGSFTISRDNAKNTVYLQMNSLKPEDTAVYYCNVYAGQYGMNYWGQGTQVTVSS | high polyreactivity
QVQLVESGAGLVQAGGSLRLSCAASGSTFYPYAMGWYRQAPGKERELVAAISWSGGSTYYADSVKGRFTISRDNAKNTVYLQMNSLKPEDTAVYYCAAEYYYIAYTMDYWGQGTQVTVSS | high polyreactivity
QVQHVESGGGLVQAGGSLRLSCAASGITFYVNDMGWSRQAPGKEREFVAAISYRGGSPYYADSVKGRFTFSRDNAKNTVYLKMNSLKPEDTAVYYCAADYNYWSPHRYDYWGQGTQVTVSS | low polyreactivity
QVQLVESGGGLVQAGGSLRLSCAASVLIMGYYAMGWYRQAPGKERELVAAISSTGSTNYADSVKGRFTISRDNAKNTVYLQMNTLKQEDTAVYYCAAVPPRKDYQHMDYWGQGTQVTVSS | low polyreactivity
QVQLVESVGGLVQAGGSLRLSCAASGFIFAFYAMGWYRQAPGKESELVAAIRTGGSTNYADSVKGRFTISRDNAKNTVYLQMNSLKPEDTAVYYCAAYGRGGYWRWERDYWGLGTQVTVSS | high polyreactivity
QVQLVESGGGLVQAGGSLRLSCASSGSIFYVNTMGWYRQAPGKERELVATISVSGGSTNYADSVKGRFTISRDNAKNTVYFQMNSLKPEDTAVYYCAEAYLRYYDGPYDYWGQGTQVTVSS | low polyreactivity
KVQLVESGGGLVQAGGTLRLSCAASGSTFTPYAMVWYRQAPGKERELVAAIWIGGNTYYADSVKGRFTISRDNAKNTVYLQMNSLKPEDTAVYYCATENVDPDHYYDWGYDYWGQGTQVTVSS | low polyreactivity
QVQLVESGGGLVQAGGSLRLSCAASGRIFWTYAMGWYRQAPGKERELVAAINSSGGTTYYADSVKGRFTISRDNAKNTVYLQMNSLKPEDTAVYYCSVRGRYYYRRPQISYDYGGQGTQVTVSS | low polyreactivity
QVQLVESGGGLVQAGGSLRLSCAASGGTFSWYAMGWYRQAPGKERELVAAITARGGSTYYADSVKGRFTISRDNAKNTVYLQMNSLKPEDTAVYYCNKRTRSLVRYNSGGYSVGYWGQCTQVTVSS | high polyreactivity
QVQLVESGGGLVQAGGSLRLSCAASGRIFGYYAMGWYRQAPGKERELVAGINSAGSTNYADSVKGRFTISRDNAKNTVYLQMNSLKPEDTAVYYCAARIRLSLRTGYDYWGQGTQVTVSS | high polyreactivity
QVQLVESGGGLVQAGGSLRLSCAASGSTIGYNAMGWYRQAPGKERELVAAISGSGTDTRYADSVKGRFTISRDNAKNTFYLQMNSRNPEDTAVYYCAVSVVYRGSKRVRQNPMEYWGQGTQVTVSS | high polyreactivity
QVQLVESGGGLVQAGGSLRLSCAASGGIFLVNDMGWYRPAPGKEWELVAAITSGGGTYYADSVKGRFTISRDNAKNTVYLQMNSLKPEDTAVYYCARDTYRQIVSNESYGYWGQGTQVTVSS | low polyreactivity
QVQLVESGGGLVQAGGSLRVSCAASGRTFKKYTMGLYRQAAGKERELVPVITSGGSTYYADSVKGRFTISRDNAKNTVYLQMNSLKPEDTAVYYWAADLYYNSYGRYGRYYYWGQGTQVTVSS | high polyreactivity
QVQLVESGGGLVQAGGSLRLSCAASGSIFRHNAMGGYRQSPGKERELVAAISRRASSTYYADSVKGRFTISRDNAKNTVYLQLNSLKPEDTAVYYCAVVPSTTYHAYDYWGQGTQVTVSS | high polyreactivity
QVQLVESGGGLVQAGGSLRLSCAASGRTFPPYAMGWYRQAPGKERELVAAISSDGSTYADSVKGRFTISRDNAKNTVYLQMNSLKPEDTAVYYCAVDYTYSYRKHFGHILYSWGQGTQVTVSS | low polyreactivity
QVQLVESGGGLVQAGGSLRLSCAASGSIFTRYAMGWYRQAPGKEREFVAAITTRGGSTYYADSVKGRFTISRDNAKNTVYLQMNSLKPEDTAVYYCNTRGKSGLWWYNYWGQGTQVTVSS | high polyreactivity
QVQLVESGGGLVQAGGSLRLSCAASGIIFQYYVMGWYRQAPGKERELVAAIDKSGGSTYYADSVKGRFTISRDNAKNTVYLQMNSLKPEDTAVYYCNRDRGWTRFYVYSTGAWLYDYWGQGTQVTVSS | low polyreactivity
QVQLVESGGGLVQAGGSLRLSCAASGSIFVSYAMGWYRQAPGKERELVAAITSIGTRTYYADSVKGRFTISRDNAKNTVYLQINSLKPEDTAVYYCNAPRFWSRHGLRDYWGQVTQVTVSS | high polyreactivity
